{"source": "paper PMC9482650", "about": "“Quantitative fragmentomics allow affinity mapping of interactomes” (Nature Communications, 2022)", "binders": {"B1": {"name": "SDC2, P34741 (peptide)", "chain": "QKAPTKEFYA"}, "B2": {"name": "FZD4, Q9ULV1 (peptide)", "chain": "KPGKGSETVV"}, "B3": {"name": "PLXNB1, O43157 (peptide)", "chain": "AAVENKVTDL"}}}
{"biological_target": "T1, ARHGEF11, O15085", "T1 sequence (O15085 42-136, limits assumed, looked up)": "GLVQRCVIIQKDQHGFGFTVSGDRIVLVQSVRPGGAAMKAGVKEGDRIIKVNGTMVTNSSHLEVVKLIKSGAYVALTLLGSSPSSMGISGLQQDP", "test": "holdup assay", "parameters": "key: below the threshold = too weak to quantify, mostly under pKd 3.1 to 4", "conditions": "plain residues with an end cap or a label only (N-terminal biotin on a linker: ado-ado)"}
{"binder": "B1", "pKd": "below the threshold"}
{"binder": "B2", "pKd": 3.69}
{"binder": "B3", "pKd": 4.65}
{"biological_target": "CASK, O14936", "sequence (O14936 487-570)": "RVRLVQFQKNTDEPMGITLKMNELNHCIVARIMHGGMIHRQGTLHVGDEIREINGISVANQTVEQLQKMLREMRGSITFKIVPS", "test": "holdup assay", "parameters": "key: below the threshold = too weak to quantify, mostly under pKd 3.1 to 4", "conditions": "plain residues with an end cap or a label only (N-terminal biotin on a linker: ado-ado)"}
{"binder": "B1", "pKd": "below the threshold"}
{"binder": "B2", "pKd": "below the threshold"}
{"binder": "B3", "pKd": "below the threshold"}
{"biological_target": "T2, DFNB31_1, Q9P202", "T2 sequence (Q9P202 135-233, limits assumed, looked up)": "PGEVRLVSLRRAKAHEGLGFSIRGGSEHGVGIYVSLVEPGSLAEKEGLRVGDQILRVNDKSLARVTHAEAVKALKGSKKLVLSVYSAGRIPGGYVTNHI", "test": "holdup assay", "parameters": "key: below the threshold = too weak to quantify, mostly under pKd 3.1 to 4", "conditions": "plain residues with an end cap or a label only (N-terminal biotin on a linker: ado-ado)"}
{"binder": "B1", "pKd": "below the threshold"}
{"binder": "B2", "pKd": 3.91}
{"binder": "B3", "pKd": 3.47}
{"biological_target": "T3, DFNB31_2, Q9P202", "T3 sequence (Q9P202 274-371, limits assumed, looked up)": "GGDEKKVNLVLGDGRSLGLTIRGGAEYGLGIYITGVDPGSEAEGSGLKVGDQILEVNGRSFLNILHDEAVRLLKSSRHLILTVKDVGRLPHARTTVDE", "test": "holdup assay", "parameters": "key: below the threshold = too weak to quantify, mostly under pKd 3.1 to 4", "conditions": "plain residues with an end cap or a label only (N-terminal biotin on a linker: ado-ado)"}
{"binder": "B1", "pKd": "below the threshold"}
{"binder": "B2", "pKd": "below the threshold"}
{"binder": "B3", "pKd": "below the threshold"}
{"biological_target": "DLG1_2, Q12959", "sequence (Q12959 314-412)": "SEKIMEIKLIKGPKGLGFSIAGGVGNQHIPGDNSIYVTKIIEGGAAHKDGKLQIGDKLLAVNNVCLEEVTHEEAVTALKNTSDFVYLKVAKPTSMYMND", "test": "holdup assay", "parameters": "key: below the threshold = too weak to quantify, mostly under pKd 3.1 to 4", "conditions": "plain residues with an end cap or a label only (N-terminal biotin on a linker: ado-ado)"}
{"binder": "B1", "pKd": 3.49}
{"binder": "B2", "pKd": 5.12}
{"binder": "B3", "pKd": 4.45}
{"biological_target": "DLG5_1, Q8TDM6", "sequence (Q8TDM6 617-713)": "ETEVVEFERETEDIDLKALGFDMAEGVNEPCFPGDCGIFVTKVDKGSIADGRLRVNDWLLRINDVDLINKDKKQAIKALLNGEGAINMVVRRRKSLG", "test": "holdup assay", "parameters": "key: below the threshold = too weak to quantify, mostly under pKd 3.1 to 4", "conditions": "plain residues with an end cap or a label only (N-terminal biotin on a linker: ado-ado)"}
{"binder": "B1", "pKd": "below the threshold"}
{"binder": "B2", "pKd": 3.54}
{"binder": "B3", "pKd": "below the threshold"}
{"biological_target": "FRMPD2_1, Q68DX3", "sequence (Q68DX3 770-861)": "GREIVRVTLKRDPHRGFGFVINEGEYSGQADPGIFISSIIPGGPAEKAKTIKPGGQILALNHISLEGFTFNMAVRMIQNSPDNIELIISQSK", "test": "holdup assay", "parameters": "key: below the threshold = too weak to quantify, mostly under pKd 3.1 to 4", "conditions": "plain residues with an end cap or a label only (N-terminal biotin on a linker: ado-ado)"}
{"binder": "B1", "pKd": 4.1}
{"binder": "B2", "pKd": 3.54}
{"binder": "B3", "pKd": "below the threshold"}
{"biological_target": "FRMPD3, Q5JV73", "sequence (Q5JV73 12-100)": "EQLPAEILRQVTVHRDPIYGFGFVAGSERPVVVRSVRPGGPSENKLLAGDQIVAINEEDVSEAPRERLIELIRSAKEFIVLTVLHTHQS", "test": "holdup assay", "parameters": "key: below the threshold = too weak to quantify, mostly under pKd 3.1 to 4", "conditions": "plain residues with an end cap or a label only (N-terminal biotin on a linker: ado-ado)"}
{"binder": "B1", "pKd": 3.89}
{"binder": "B2", "pKd": "below the threshold"}
{"binder": "B3", "pKd": "below the threshold"}
{"biological_target": "GIPC2, Q8TF65", "sequence (Q8TF65 112-203)": "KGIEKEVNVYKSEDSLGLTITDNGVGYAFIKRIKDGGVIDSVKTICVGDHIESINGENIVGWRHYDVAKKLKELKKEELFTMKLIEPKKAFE", "test": "holdup assay", "parameters": "key: below the threshold = too weak to quantify, mostly under pKd 3.1 to 4", "conditions": "plain residues with an end cap or a label only (N-terminal biotin on a linker: ado-ado)"}
{"binder": "B1", "pKd": "below the threshold"}
{"binder": "B2", "pKd": 3.57}
{"binder": "B3", "pKd": "below the threshold"}
{"biological_target": "T4, GRIP1_3, Q9Y3R0", "T4 sequence (Q9Y3R0 247-346, limits assumed, looked up)": "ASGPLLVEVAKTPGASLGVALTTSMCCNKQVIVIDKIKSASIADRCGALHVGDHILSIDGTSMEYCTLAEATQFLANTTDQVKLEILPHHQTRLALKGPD", "test": "holdup assay", "parameters": "key: below the threshold = too weak to quantify, mostly under pKd 3.1 to 4", "conditions": "plain residues with an end cap or a label only (N-terminal biotin on a linker: ado-ado)"}
{"binder": "B1", "pKd": "below the threshold"}
{"binder": "B2", "pKd": "below the threshold"}
{"binder": "B3", "pKd": "below the threshold"}
{"biological_target": "GRIP2_7, Q9C0E4", "sequence (Q9C0E4 934-1023)": "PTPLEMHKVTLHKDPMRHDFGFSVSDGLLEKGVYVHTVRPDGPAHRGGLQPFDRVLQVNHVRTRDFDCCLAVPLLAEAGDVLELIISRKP", "test": "holdup assay", "parameters": "key: below the threshold = too weak to quantify, mostly under pKd 3.1 to 4", "conditions": "plain residues with an end cap or a label only (N-terminal biotin on a linker: ado-ado)"}
{"binder": "B1", "pKd": "below the threshold"}
{"binder": "B2", "pKd": "below the threshold"}
{"binder": "B3", "pKd": "below the threshold"}
{"biological_target": "Inadl_5, Q8NI35", "sequence (Q8NI35 673-780)": "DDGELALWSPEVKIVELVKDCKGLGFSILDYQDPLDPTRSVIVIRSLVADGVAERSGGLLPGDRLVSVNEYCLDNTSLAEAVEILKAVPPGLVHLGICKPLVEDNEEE", "test": "holdup assay", "parameters": "key: below the threshold = too weak to quantify, mostly under pKd 3.1 to 4", "conditions": "plain residues with an end cap or a label only (N-terminal biotin on a linker: ado-ado)"}
{"binder": "B1", "pKd": "below the threshold"}
{"binder": "B2", "pKd": "below the threshold"}
{"binder": "B3", "pKd": "below the threshold"}
{"biological_target": "T5, LIN7C, Q9NUP9", "T5 sequence (Q9NUP9 88-185, limits assumed, looked up)": "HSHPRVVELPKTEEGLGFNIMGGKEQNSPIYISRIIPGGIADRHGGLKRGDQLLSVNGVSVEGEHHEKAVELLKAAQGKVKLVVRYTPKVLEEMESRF", "test": "holdup assay", "parameters": "key: below the threshold = too weak to quantify, mostly under pKd 3.1 to 4", "conditions": "plain residues with an end cap or a label only (N-terminal biotin on a linker: ado-ado)"}
{"binder": "B1", "pKd": "below the threshold"}
{"binder": "B2", "pKd": 4.08}
{"binder": "B3", "pKd": "below the threshold"}
{"biological_target": "T6, LNX2_3, Q8N448", "T6 sequence (Q8N448 463-564, limits assumed, looked up)": "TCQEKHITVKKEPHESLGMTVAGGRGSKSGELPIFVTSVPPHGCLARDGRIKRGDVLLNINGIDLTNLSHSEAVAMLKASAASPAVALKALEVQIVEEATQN", "test": "holdup assay", "parameters": "key: below the threshold = too weak to quantify, mostly under pKd 3.1 to 4", "conditions": "plain residues with an end cap or a label only (N-terminal biotin on a linker: ado-ado)"}
{"binder": "B1", "pKd": "below the threshold"}
{"binder": "B2", "pKd": "below the threshold"}
{"binder": "B3", "pKd": "below the threshold"}
{"biological_target": "MAGI1_2, Q96QZ7", "sequence (Q96QZ7 456-580)": "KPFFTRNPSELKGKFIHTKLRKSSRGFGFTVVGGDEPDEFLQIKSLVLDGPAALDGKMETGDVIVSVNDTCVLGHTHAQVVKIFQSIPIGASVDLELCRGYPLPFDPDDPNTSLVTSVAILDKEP", "test": "holdup assay", "parameters": "key: below the threshold = too weak to quantify, mostly under pKd 3.1 to 4", "conditions": "plain residues with an end cap or a label only (N-terminal biotin on a linker: ado-ado)"}
{"binder": "B1", "pKd": "below the threshold"}
{"binder": "B2", "pKd": 4.47}
{"binder": "B3", "pKd": "below the threshold"}
{"biological_target": "MAGI2_2, Q86UL8", "sequence (Q86UL8 410-522)": "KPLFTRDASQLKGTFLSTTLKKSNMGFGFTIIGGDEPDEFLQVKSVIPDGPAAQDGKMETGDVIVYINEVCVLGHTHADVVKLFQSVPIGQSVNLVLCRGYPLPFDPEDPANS", "test": "holdup assay", "parameters": "key: below the threshold = too weak to quantify, mostly under pKd 3.1 to 4", "conditions": "plain residues with an end cap or a label only (N-terminal biotin on a linker: ado-ado)"}
{"binder": "B1", "pKd": "below the threshold"}
{"binder": "B2", "pKd": 5.22}
{"binder": "B3", "pKd": "below the threshold"}
{"biological_target": "MAGI2_4, Q86UL8", "sequence (Q86UL8 772-865)": "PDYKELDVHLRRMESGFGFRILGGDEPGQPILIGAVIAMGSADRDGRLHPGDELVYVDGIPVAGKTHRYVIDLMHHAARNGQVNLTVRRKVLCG", "test": "holdup assay", "parameters": "key: below the threshold = too weak to quantify, mostly under pKd 3.1 to 4", "conditions": "plain residues with an end cap or a label only (N-terminal biotin on a linker: ado-ado)"}
{"binder": "B1", "pKd": "below the threshold"}
{"binder": "B2", "pKd": 4.48}
{"binder": "B3", "pKd": "below the threshold"}
{"biological_target": "MAST1, Q9Y2H9", "sequence (Q9Y2H9 962-1065)": "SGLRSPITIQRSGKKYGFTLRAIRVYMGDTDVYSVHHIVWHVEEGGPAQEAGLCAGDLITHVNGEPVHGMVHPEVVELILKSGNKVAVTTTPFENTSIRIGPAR", "test": "holdup assay", "parameters": "key: below the threshold = too weak to quantify, mostly under pKd 3.1 to 4", "conditions": "plain residues with an end cap or a label only (N-terminal biotin on a linker: ado-ado)"}
{"binder": "B1", "pKd": "below the threshold"}
{"binder": "B2", "pKd": 4.4}
{"binder": "B3", "pKd": 4.67}
{"biological_target": "T7, MPP2, Q14168", "T7 sequence (Q14168 180-250, limits assumed, looked up)": "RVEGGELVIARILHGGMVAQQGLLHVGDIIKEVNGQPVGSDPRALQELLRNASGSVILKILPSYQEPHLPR", "test": "holdup assay", "parameters": "key: below the threshold = too weak to quantify, mostly under pKd 3.1 to 4", "conditions": "plain residues with an end cap or a label only (N-terminal biotin on a linker: ado-ado)"}
{"binder": "B1", "pKd": "below the threshold"}
{"binder": "B2", "pKd": "below the threshold"}
{"binder": "B3", "pKd": "below the threshold"}
{"biological_target": "T8, PARD3B_1, Q8TEW8", "T8 sequence (Q8TEW8 196-299, limits assumed, looked up)": "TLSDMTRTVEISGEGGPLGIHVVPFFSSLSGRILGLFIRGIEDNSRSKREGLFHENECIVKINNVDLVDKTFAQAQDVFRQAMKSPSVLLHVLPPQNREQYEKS", "test": "holdup assay", "parameters": "key: below the threshold = too weak to quantify, mostly under pKd 3.1 to 4", "conditions": "plain residues with an end cap or a label only (N-terminal biotin on a linker: ado-ado)"}
{"binder": "B1", "pKd": 4.39}
{"binder": "B2", "pKd": "below the threshold"}
{"binder": "B3", "pKd": 3.54}
{"biological_target": "T9, RADIL, Q96JH8", "T9 sequence (Q96JH8 971-1071, limits assumed, looked up)": "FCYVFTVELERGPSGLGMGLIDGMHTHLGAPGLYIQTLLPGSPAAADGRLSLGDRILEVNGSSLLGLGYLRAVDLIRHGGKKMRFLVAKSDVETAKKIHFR", "test": "holdup assay", "parameters": "key: below the threshold = too weak to quantify, mostly under pKd 3.1 to 4", "conditions": "plain residues with an end cap or a label only (N-terminal biotin on a linker: ado-ado)"}
{"binder": "B1", "pKd": 3.51}
{"binder": "B2", "pKd": 3.97}
{"binder": "B3", "pKd": "below the threshold"}
{"biological_target": "T10, SIPA1L2, Q9P2F8", "T10 sequence (Q9P2F8 945-1036, limits assumed, looked up)": "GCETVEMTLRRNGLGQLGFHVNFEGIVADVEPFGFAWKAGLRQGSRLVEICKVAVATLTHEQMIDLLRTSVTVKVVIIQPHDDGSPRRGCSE", "test": "holdup assay", "parameters": "key: below the threshold = too weak to quantify, mostly under pKd 3.1 to 4", "conditions": "plain residues with an end cap or a label only (N-terminal biotin on a linker: ado-ado)"}
{"binder": "B1", "pKd": "below the threshold"}
{"binder": "B2", "pKd": "below the threshold"}
{"binder": "B3", "pKd": "below the threshold"}
{"biological_target": "T11, SNTG2, Q9NY99", "T11 sequence (Q9NY99 68-166, limits assumed, looked up)": "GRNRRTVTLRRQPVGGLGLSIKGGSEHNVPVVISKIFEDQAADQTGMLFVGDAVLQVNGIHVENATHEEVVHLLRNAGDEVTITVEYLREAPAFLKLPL", "test": "holdup assay", "parameters": "key: below the threshold = too weak to quantify, mostly under pKd 3.1 to 4", "conditions": "plain residues with an end cap or a label only (N-terminal biotin on a linker: ado-ado)"}
{"binder": "B1", "pKd": "below the threshold"}
{"binder": "B2", "pKd": 4.26}
{"binder": "B3", "pKd": 3.98}
{"biological_target": "TJP1_2, Q07157", "sequence (Q07157 181-274)": "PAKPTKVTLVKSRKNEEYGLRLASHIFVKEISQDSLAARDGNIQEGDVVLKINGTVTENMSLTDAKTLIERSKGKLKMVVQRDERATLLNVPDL", "test": "holdup assay", "parameters": "key: below the threshold = too weak to quantify, mostly under pKd 3.1 to 4", "conditions": "plain residues with an end cap or a label only (N-terminal biotin on a linker: ado-ado)"}
{"binder": "B1", "pKd": "below the threshold"}
{"binder": "B2", "pKd": "below the threshold"}
{"binder": "B3", "pKd": "below the threshold"}
{"biological_target": "TJP2_1, Q9UDY2", "sequence (Q9UDY2 24-128)": "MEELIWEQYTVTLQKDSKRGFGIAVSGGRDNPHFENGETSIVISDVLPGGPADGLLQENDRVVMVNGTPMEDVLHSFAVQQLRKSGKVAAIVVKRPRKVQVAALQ", "test": "holdup assay", "parameters": "key: below the threshold = too weak to quantify, mostly under pKd 3.1 to 4", "conditions": "plain residues with an end cap or a label only (N-terminal biotin on a linker: ado-ado)"}
{"binder": "B1", "pKd": "below the threshold"}
{"binder": "B2", "pKd": "below the threshold"}
{"binder": "B3", "pKd": "below the threshold"}
{"biological_target": "T12, TJP3_3, O95049", "T12 sequence (O95049 375-456, limits assumed, looked up)": "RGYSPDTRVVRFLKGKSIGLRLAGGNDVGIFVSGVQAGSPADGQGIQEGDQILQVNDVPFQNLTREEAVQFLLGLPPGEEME", "test": "holdup assay", "parameters": "key: below the threshold = too weak to quantify, mostly under pKd 3.1 to 4", "conditions": "plain residues with an end cap or a label only (N-terminal biotin on a linker: ado-ado)"}
{"binder": "B1", "pKd": "below the threshold"}
{"binder": "B2", "pKd": "below the threshold"}
{"binder": "B3", "pKd": "below the threshold"}
